Results as given in patent publication US20190062383A1 (Janssen / Centocor, published 2019).

Molecular target: KV1N2 (OsK1-Fc fusion) (Orthochirus scrobiculosus)
Assay: FACS competition with agitoxin2-cys-TAMRA

B1: hKv1.3 E3 loop/hKv1.5 chimera (receptor)
chain: MEIALVPLENGGAMTVRGGDEARAGCGQATGGELQCPPTAGLSDGPKEPAPKGRGAQRDADSGVRPLPPLPDPGVRPLPPLPEELPRPRRPPPEDEEEEGDPGLGTVEDQALGTASLHHQRVHINISGLRFETQLGTLAQFPNTLLGDPAKRLRYFDPLRNEYFFDRNRPSFDGILYYYQSGGRLRRPVNVSLDVFADEIRFYQLGDEAMERFREDEGFIKEEEKPLPRNEFQRQVWLIFEYPESSGSARAIAIVSVLVILISIITFCLETLPEFRDERELLRHPPAPHQPPAPAPGANGSGVMAPPSGPTVAPLLPRTLADPFFIVETTCVIWFTFELLVRFFACPSKAGFSRNIMNIIDVVAIFPYFITLGTELAEQQPGGGGGGQNGQQAMSLAILRVIRLVRVFRIFKLSRHSKGLQILGKTLQASMRELGLLIFFLFIGVILFSSAVYFAEADDPTSGFSSIPDAFWWAVVTMTTVGYGDMHPVTIGGKIVGSLCAIAGVLTIALPVPVIVSNFNYFYHRETDHEEPAVLKEEQGTQSQGPGLDRGVQRKVSGSRGSFCKAGGTLENADSARRGSCPLEKCNVKAKSNVDLRRSLYALCLDTSRETDL
binding result: binds
